Three molecules from US9840539B2, “High affinity digoxigenin binding proteins” (UNIVERSITY OF WASHINGTON THROUGH ITS CENTER FOR …, priority 2013, dated 2017) can be followed below.

Where a chain is given by its changes, count along the chain named. Names and notes keep the numbering of the source.

For orientation: Ki means a dissociation constant, usually derived from enzyme kinetics or from competition with a known ligand.

The nature of assay [1]: Fluorescence polarization equilibrium competition binding assay, unlabeled progesterone. To be noted: steroid progesterone; PBS pH 7.4, 25° C.; read-out: Inhibition Constant (Ki). How it is done:
(§1) Proteins were expressed in E. coli Rosetta 2 (DE3) cells with a C-terminal TEV protease cleavable His6 tag for biochemical assays. For crystallographic analysis of DIG10 variants, a 12-amino acid structurally disordered C-terminus deriving from the scaffold protein 1z1s was replaced directly with a His6 tag. Binding affinities were determined by equilibrium fluorescence polarization^30 on a SpectraMax M5e microplate reader by monitoring the anisotropy of DIG-conjugated Alexa488 as a function of protein concentration. Equilibrium fluorescence polarization competition assays were performed by examining the effect of increasing concentrations of unlabeled DIG, digitoxigenin, progesterone, and β-estradiol on the anisotropy of designed protein-DIG-conjugated Alexa488 complex.
(§2) Fluorescence polarization binding assays. Fluorescence polarization-based affinity measurements of designs and their evolved variants were performed as described^46 using Alexa488-conjugated DIG (DIG-PEG3-Alexa488). Fluorescence anisotropy (r) was measured in 96-well plate format on a SpectraMax M5e microplate reader (Molecular Devices) with λex=485 nM and λem=538 nM using a 515 nm emission cutoff filter. Fluorescence polarization equilibrium competition binding assays were used to determine the binding affinities of DIG10.3 and its variants for unlabeled digoxigenin, digitoxigenin, progesterone, β-estradiol, and digoxin. […]
(§3) Fluorescence polarization equilibrium competition binding assays. Fluorescence polarization equilibrium competition binding assays were used to determine the binding affinities of DIG10.3 and its variants for unlabeled digoxigenin, digitoxigenin, progesterone, β-estradiol, and digoxin. […] For each ligand concentration, a negative control sample containing only DIG-PEG3-Alexa488 and the appropriate dilution of a corresponding methanol-only control solution in PBS was measured.
(§4) Fluorescence anisotropy (r) was measured as noted above. […]

A short description of assay [2]: Fluorescence polarization equilibrium competition binding assay, unlabeled β-estradiol. To be noted: steroid β-estradiol; PBS pH 7.4, 25° C.; read-out: Inhibition Constant (Ki). The procedure:
as §1, §2, §3, §4
(In general: Polarisation of emitted light reports the rotation of a fluorescent probe.)

Assay [3] in a line: Fluorescence polarization equilibrium competition binding assay, unlabeled digoxin. How it is done: (§5) Fluorescence polarization binding assays. Fluorescence polarization-based affinity measurements of designs and their evolved variants were performed as described^46 using Alexa488-conjugated DIG (DIG-PEG3-Alexa488). Fluorescence anisotropy (r) was measured in 96-well plate format on a SpectraMax M5e microplate reader (Molecular Devices) with λex=485 nM and λem=538 nM using a 515 nm emission cutoff filter. Fluorescence polarization equilibrium competition binding assays were used to determine the binding affinities of DIG10.3 and its variants for unlabeled digoxigenin, digitoxigenin, progesterone, β-estradiol, and digoxin. The inhibition constant for each protein-ligand interaction, Ki, was calculated from the measured total unlabeled ligand producing 50% binding signal inhibition (I50) and the Kd of the protein-label interaction according to a model accounting for receptor-depletion conditions^46.
Fluorescence polarization equilibrium competition binding assays. Fluorescence polarization equilibrium competition binding assays were used to determine the binding affinities of DIG10.3 and its variants for unlabeled digoxigenin, digitoxigenin, progesterone, β-estradiol, and digoxin. […] Unlabeled stock solutions of digoxigenin, digitoxigenin, progesterone, and β-estradiol were prepared in methanol. Unlabeled stock solutions of digoxin were prepared in DMSO. […] For each ligand concentration, a negative control sample containing only DIG-PEG3-Alexa488 and the appropriate dilution of a corresponding methanol-only control solution in PBS was measured.
Fluorescence anisotropy (r) was measured as noted above. […] The concentration of total unlabeled ligand producing 50% binding signal inhibition (I50) was determined by fitting a plot of the anisotropy averaged over a period of 30 min to 3 hr after reaction initiation versus unlabeled ligand concentration as described previously^47. […] In these cases, data were fit by fixing the anisotropy at infinite steroid concentration to a value measured for other steroids for which this value could be determined experimentally. […]

Assay [4] can be described thus: Fluorescence polarization equilibrium competition binding assay, unlabeled digitoxigenin. To be noted: steroid digitoxigenin; PBS pH 7.4, 25° C.; read-out: Inhibition Constant (Ki). The procedure:
as §1, §2, §3, §4

Assay [5] in a line: Fluorescence polarization equilibrium competition binding assay, unlabeled digoxigenin. As to conditions: for Ki: steroid Digoxigenin (DIG), PBS pH 7.4, 25° C., read-out: Inhibition Constant (Ki). How it is done:
as §1, §5
Fluorescence polarization equilibrium competition binding assays. Fluorescence polarization equilibrium competition binding assays were used to determine the binding affinities of DIG10.3 and its variants for unlabeled digoxigenin, digitoxigenin, progesterone, β-estradiol, and digoxin. […] Unlabeled stock solutions of digoxigenin, digitoxigenin, progesterone, and β-estradiol were prepared in methanol. Unlabeled stock solutions of digoxin were prepared in DMSO. Ligand stock solutions were 10 mM for DIG, digitoxigenin, and digoxin, and 1 mM for progesterone and β-estradiol. For each ligand concentration, a negative control sample containing only DIG-PEG3-Alexa488 and the appropriate dilution of a corresponding methanol-only control solution in PBS was measured.
Fluorescence anisotropy (r) was measured as noted above. In all experiments, PBS (pH 7.4) was used as the buffer system and the temperature was 25° C. The concentration of total unlabeled ligand producing 50% binding signal inhibition (I50) was determined by fitting a plot of the anisotropy averaged over a period of 30 min to 3 hr after reaction initiation versus unlabeled ligand concentration as described previously^47. For some experiments, limiting steroid concentrations made it impossible to collect data in the regime of complete inhibition. In these cases, data were fit by fixing the anisotropy at infinite steroid concentration to a value measured for other steroids for which this value could be determined experimentally. […]
The inhibition constant for each protein-ligand interaction, Ki, was calculated from the measured IC50 and the Kd of the protein-label interaction according to a model accounting for receptor-depletion conditions^47. […]

B1: DIG10.3: DIG10.2 variant with C23S, H90L, V92A, A99Y, S103A, L105W; SEQ ID NO: 15 (protein)
chain: MNAKEIVVHALRLLENGDARGWSDLFHPEGVLEYPYPPPGYKTRFEGRETIWAHMRLFPEYMTIRFTDVQFYETADPDLAIGEFHGDGVLTASGGKLAYDYIAVWRTRDGQILLYRLFFNPLRVLEPLGGVEAAAKIVQGA
modifications: (130)..(141) amino acids are optionally absent
B1: the inhibition constant Ki in assay [1] amounted to 243 ± 91 nM; in assay [2] it was 2100 ± 800 nM; in assay [3] (steroid digoxin, PBS pH 7.4, 25° C., read-out: Inhibition Constant (Ki)), 0.223 ± 0.105 nM; in assay [4], 19 ± 7 nM; in assay [5], 0.653 ± 0.262 nM. In addition, the “affinity for digoxin (in words)” value in assay [3] is reported as “picomolar affinity”. Besides, the “affinity for digoxin compared with DIG” value in assay [3] (competition FP) was “slightly higher than that for DIG”. In addition, the “DIG binding affinity relative to widely used anti-DIG antibodies” value in assay [5] is “within a factor of two”. The “affinity for DIG (in words)” value in assay [5] is given as “picomolar affinity”.

B2: DIG10.3 Y101F: DIG10.3 point mutant, SEQ ID NO: 19 (protein)
chain: B1 chain with Y101F
modifications: (130)..(141) amino acids are optionally absent
In the case of B2, the Ki in assay [1] is 30 ± 9 nM; in assay [2] it was 1700 ± 400 nM; in assay [4], less than 3.8 nM; in assay [5] it was 39 ± 8 nM.

B3: DIG10.3 Y34F/Y99F/Y101F: DIG10.3 triple mutant, SEQ ID NO: 22 (protein)
chain: B1 chain with Y34F, Y99F, Y101F
modifications: (130)..(141) amino acids are optionally absent
As to B3, the Ki in assay [1] was less than 17 nM; in assay [2], 1600 ± 600 nM; in assay [4], less than 16 nM; in assay [5] it was 580 ± 229 nM.
